Source: patent US5679770A, “Polypeptide, DNA fragment encoding the same, drug composition containing the same and process for producing the same” (Mochida Pharmaceutical Co., Ltd., priority 1991, dated 1997)

T1: Bovine trypsin (Bos taurus, UniProt P00760)
T1 construct: purchased Sigma Chemical Co. Type XIII
T1 sequence (P00760 24-246): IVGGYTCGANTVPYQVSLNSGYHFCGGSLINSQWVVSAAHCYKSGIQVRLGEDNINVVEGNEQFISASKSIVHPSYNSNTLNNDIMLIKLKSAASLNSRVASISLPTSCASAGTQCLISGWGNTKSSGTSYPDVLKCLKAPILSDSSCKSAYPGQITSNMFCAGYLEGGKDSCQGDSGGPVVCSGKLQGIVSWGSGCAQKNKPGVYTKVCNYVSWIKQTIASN

T2: Human neutrophil elastase (Homo sapiens, UniProt P08246)
T2 construct: purchased CALBIOCHEM
T2 sequence (P08246 30-267): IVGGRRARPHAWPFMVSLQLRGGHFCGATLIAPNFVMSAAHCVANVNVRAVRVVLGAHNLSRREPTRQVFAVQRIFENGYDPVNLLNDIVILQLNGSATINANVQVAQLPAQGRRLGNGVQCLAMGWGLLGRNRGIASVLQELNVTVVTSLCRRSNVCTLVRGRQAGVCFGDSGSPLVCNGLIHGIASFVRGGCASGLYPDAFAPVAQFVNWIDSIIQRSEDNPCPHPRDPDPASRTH


Key:
Bovine trypsin = target: T1, Bovine trypsin; assay: Bovine trypsin-inhibiting activity (synthetic substrate S-2444); format: biochemical; conditions: purified polypeptide, serially diluted
Protocol: The purified polypeptide of the present invention was dissolved in 100 μl of distilled water, and the solution was serially diluted with a 0.1% BSA/0.2M triethanolamine-HCl buffer (pH 7.8) for use in the activity measurement. Measurement of the trypsin-inhibiting activity in the thus prepared test sample was carried out in accordance with the Kassell's method (Kassell, B. et al., Methods in Enzymology, vol.19, pp.844-852, 1970) using a synthetic substrate S-2444 (Daiichi Pure Chemicals Co., Ltd.).
Bovine trypsin (Type XIII, Sigma Chemical Co.) was dissolved in 0.001M HCl to a final concentration of 13,600 BAEEU/ml and the solution was further diluted with 0.1% BSA/0.2M triethanolamine-HCl buffer (pH 7.8) to prepare 1.2 BAEEU/ml of trypsin solution. Separately from this, 2 mM solution of the synthetic substrate S-2444 was prepared by dissolving it in distilled water. Next, 100 μl of the test sample was mixed with 100 μl of the trypsin solution. After incubating statically at 37° C. for 10 minutes, 50 μl of the S-2444 solution was added to start the reaction. The reaction was carried out at 37° C. for 15 minutes and then stopped by adding 50 μl of 50% acetic acid solution to the reaction mixture. Thereafter, absorbance at a wavelength of 405 nm was measured using a spectrophotometer. In this instance, in order to eliminate absorbancy of various contents in the reaction mixture other than the reaction product, a blank solution was prepared by mixing 100 μl of the bovine trypsin solution with 50 μl of 50% acetic acid and then with 100 μl of each test sample and 50 μl of the S-2444 solution.

[1] = target: T2, Human neutrophil elastase; assay: Human elastase-inhibiting activity (substrate STANA); format: biochemical; conditions: for elastase-inhibiting activity, times higher than that of polypeptide Q19K/Y46D: relative to Q19K/Y46D; for elastase-inhibiting activity, times higher than that of polypeptide AN68: relative to control AN68
Protocol: The purified polypeptide of the present invention was dissolved in 100 μl of distilled water. The concentration of this solution was determined based on its bovine trypsin-inhibiting activity using UTI as a standard. The solution was then diluted to various concentration levels with 0.1% BSA/27 mM CaCl2 /133 mM Tris-HCl buffer (pH 7.5) for use in the activity measurement. The aforementioned AN68 was also diluted in the same manner for use as a control. Human elastase-inhibiting activities in the test samples and the control were measured in accordance with the method of Ogawa et al. (Ogawa, M. et al., Res. Commun. Chem. Pathol. Pharmacol., vol.55, pp.271-274, 1987) using a synthetic compound STANA (Peptide Institute Inc.) as a substrate.
Human neutrophil elastase (CALBIOCHEM) was dissolved in 27 mM CaCl2 /133 mM Tris-HCl buffer (pH 7.5) to a concentration of 100 μg/ml and the solution was further diluted with 0.1% BSA/27 mM CaCl2 /133 mM Tris-HCl buffer (pH 7.5) to prepare a 4 μg/ml elastase solution. 100 mM STANA solution was prepared by dissolving it in N-methyl-2-pyrrolidone and the solution was further diluted with 0.1% BSA/27 mM CaCl2 /133 mM Tris-HCl buffer (pH 7.5) to prepare a 20 mM STANA solution.
Next, 50 μl of the test sample or positive control was mixed with 50 μl of the elastase solution and 50 μl of 0.1% BSA/27 mM CACl2 /133 mM Tris-HCl buffer (pH 7.5). After incubation at 37° C. for 10 minutes, 50 μl of the STANA solution was added to the mixture to start the reaction. The reaction was carried out at 37° C. for 20 minutes and then stopped by adding 50 μl of 50% acetic acid solution to the reaction mixture. Thereafter, absorbance at a wavelength of 405 nm was measured using a spectrophotometer. In this instance, in order to eliminate absorbance of various solutions in the reaction product, a blank solution was prepared by mixing 50 μl of the elastase solution with 50 μl of 50% acetic acid and then with 50 μl of each test sample or the control, 50 μl of 0.1% BSA/27 mM CaCl2 /133 mM Tris-HCl buffer (pH 7.5) and with 50 μl of the STANA solution.
The results are shown in FIG. 54 and FIG. 55 and FIG. 67 to FIG. 69. In these figures, polypeptide concentration in the reaction solution is expressed as its bovine trypsin-inhibiting activity. Also, remaining human elastase activity was expressed by percentage based on the absorbance of a control reaction mixture in which 50 μl of the 0.1% BSA/27 mM CaCl2 /133 mM Tris-HCl buffer (pH 7.5) was used instead of the test sample or the control.

Molecule | bovine trypsin inhibition (Bovine trypsin) | elastase-inhibiting activity, times higher than that of polypeptide Q19K/Y46D [1] | elastase-inhibiting activity, times higher than that of polypeptide AN68 [1] | elastase-inhibiting activity, times higher than that of polypeptide Q19K/Y46E ([1]; relative to Q19K/Y46E from E. coli JE5505(pM721))
R11Q/Q19K/Y46D: formula 1 sequence with Gln for position 7 Arg, Lys for position 15 Gln, Asp for position 42 Tyr; SEQ. I.D. NO. 37 (protein) AACNLPIVQGPCRAFIKLWAFDAVKGKCVLFPYGGCQGNGNKFDSEKECREYCGVPGDGDEELLRFSN | can inhibit bovine trypsin in a concentration-dependent manner | about 3 times | about 3 times | –
R11D/Q19K/Y46D: formula 1 sequence with Asp for position 7 Arg, Lys for position 15 Gln, Asp for position 42 Tyr; SEQ. I.D. NO. 38 (protein) AACNLPIVDGPCRAFIKLWAFDAVKGKCVLFPYGGCQGNGNKFDSEKECREYCGVPGDGDEELLRFSN | can inhibit bovine trypsin in a concentration-dependent manner | about 3 times | about 3 times | –
R11A/Q19K/Y46D: formula 1 sequence with Ala for position 7 Arg, Lys for position 15 Gln, Asp for position 42 Tyr; SEQ. I.D. NO. 43 (protein) AACNLPIVAGPCRAFIKLWAFDAVKGKCVLFPYGGCQGNGNKFDSEKECREYCGVPGDGDEELLRFSN | can inhibit bovine trypsin in a concentration-dependent manner | about 4 times | about 4 times | –
R11E/Q19K/Y46E: formula 1 sequence with Glu for position 7 Arg, Lys for position 15 Gln, Glu for position 42 Tyr; SEQ. I.D. NO. 40 (protein) AACNLPIVEGPCRAFIKLWAFDAVKGKCVLFPYGGCQGNGNKFESEKECREYCGVPGDGDEELLRFSN | can inhibit bovine trypsin in a concentration-dependent manner | – | about 5 times | 6 times
R11S/Q19K/Y46D: formula 1 sequence with Ser for position 7 Arg, Lys for position 15 Gln, Asp for position 42 Tyr; SEQ. I.D. NO. 42 (protein) AACNLPIVSGPCRAFIKLWAFDAVKGKCVLFPYGGCQGNGNKFDSEKECREYCGVPGDGDEELLRFSN | can inhibit bovine trypsin in a concentration-dependent manner | about 10 times | about 10 times | –
R11N/Q19K/Y46D: formula 1 sequence with Asn for position 7 Arg, Lys for position 15 Gln, Asp for position 42 Tyr; SEQ. I.D. NO. 41 (protein) AACNLPIVNGPCRAFIKLWAFDAVKGKCVLFPYGGCQGNGNKFDSEKECREYCGVPGDGDEELLRFSN | can inhibit bovine trypsin in a concentration-dependent manner | about 5 times | about 5 times | –
R11L/Q19K/Y46D: formula 1 sequence with Leu for position 7 Arg, Lys for position 15 Gln, Asp for position 42 Tyr; SEQ. I.D. NO. 39 (protein) AACNLPIVLGPCRAFIKLWAFDAVKGKCVLFPYGGCQGNGNKFDSEKECREYCGVPGDGDEELLRFSN | can inhibit bovine trypsin in a concentration-dependent manner | about 2 times | about 2 times | –
